{
  "source": "paper PMC9974061",
  "key": {"[1]": {"molecular_target": "galectin-3 (gal-3), recombinant (UniProt P17931)", "sequence (P17931 whole entry)": "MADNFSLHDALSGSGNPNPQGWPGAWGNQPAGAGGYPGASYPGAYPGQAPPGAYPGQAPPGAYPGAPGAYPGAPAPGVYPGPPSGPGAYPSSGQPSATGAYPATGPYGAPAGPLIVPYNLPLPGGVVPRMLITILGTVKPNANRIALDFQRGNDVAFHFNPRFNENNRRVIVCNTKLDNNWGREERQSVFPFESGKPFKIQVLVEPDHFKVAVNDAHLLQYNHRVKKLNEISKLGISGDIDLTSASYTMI"}, "[2]": {"molecular_target": "TSG101, His-tagged recombinant (UniProt Q99816)", "sequence (Q99816 whole entry)": "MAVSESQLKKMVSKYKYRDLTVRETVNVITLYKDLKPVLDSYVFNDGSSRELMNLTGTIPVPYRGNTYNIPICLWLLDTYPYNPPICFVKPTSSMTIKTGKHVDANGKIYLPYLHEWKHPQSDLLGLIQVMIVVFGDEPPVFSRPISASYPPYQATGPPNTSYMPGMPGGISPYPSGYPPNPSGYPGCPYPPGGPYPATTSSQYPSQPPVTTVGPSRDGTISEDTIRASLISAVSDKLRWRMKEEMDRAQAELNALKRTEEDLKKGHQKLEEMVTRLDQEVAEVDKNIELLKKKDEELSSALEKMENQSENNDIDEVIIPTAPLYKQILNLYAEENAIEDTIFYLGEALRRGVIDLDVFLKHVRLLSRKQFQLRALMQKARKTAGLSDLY", "test": "BLI; Octet RED96; biotinylated ALIX (1 ug/ml), TSG101 (0.5 ug/ml) or gal-3 (1 ug/ml) on streptavidin biosensors; two-fold dilutions of S (280-70 uM) and P domain (144-36 uM); 20 mM HEPES, 150 mM NaCl, 0.005% Tween 20, 2 mg/ml BSA, pH 7.8; 2:1 model"}, "[3]": {"molecular_target": "apoptosis-linked gene 2-interacting protein X (ALIX), His-tagged recombinant (UniProt Q8WUM4)", "sequence (Q8WUM4 whole entry)": "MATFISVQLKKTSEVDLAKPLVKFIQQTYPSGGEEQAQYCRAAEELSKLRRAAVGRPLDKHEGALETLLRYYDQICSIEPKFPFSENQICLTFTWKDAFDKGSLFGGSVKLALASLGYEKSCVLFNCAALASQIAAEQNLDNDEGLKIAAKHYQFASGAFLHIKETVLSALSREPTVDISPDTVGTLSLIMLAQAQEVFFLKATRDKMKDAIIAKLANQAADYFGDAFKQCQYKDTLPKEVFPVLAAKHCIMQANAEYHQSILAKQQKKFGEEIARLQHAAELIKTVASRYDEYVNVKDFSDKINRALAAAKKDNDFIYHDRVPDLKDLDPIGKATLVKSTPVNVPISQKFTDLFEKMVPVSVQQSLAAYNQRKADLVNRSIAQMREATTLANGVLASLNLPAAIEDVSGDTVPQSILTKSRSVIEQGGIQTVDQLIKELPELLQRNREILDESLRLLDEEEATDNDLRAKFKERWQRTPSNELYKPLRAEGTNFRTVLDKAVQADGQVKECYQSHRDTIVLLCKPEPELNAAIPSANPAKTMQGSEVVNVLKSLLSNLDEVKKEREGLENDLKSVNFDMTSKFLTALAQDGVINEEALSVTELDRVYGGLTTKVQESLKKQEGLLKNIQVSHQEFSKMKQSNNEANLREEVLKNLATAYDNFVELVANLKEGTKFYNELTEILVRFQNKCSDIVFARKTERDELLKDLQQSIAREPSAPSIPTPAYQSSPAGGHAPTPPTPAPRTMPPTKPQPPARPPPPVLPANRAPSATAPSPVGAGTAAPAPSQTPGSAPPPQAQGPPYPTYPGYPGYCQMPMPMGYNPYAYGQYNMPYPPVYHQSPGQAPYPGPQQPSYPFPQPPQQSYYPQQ", "test": "BLI; Octet RED96; biotinylated ALIX (1 ug/ml), TSG101 (0.5 ug/ml) or gal-3 (1 ug/ml) on streptavidin biosensors; two-fold dilutions of S (280-70 uM) and P domain (144-36 uM); 20 mM HEPES, 150 mM NaCl, 0.005% Tween 20, 2 mg/ml BSA, pH 7.8; 2:1 model"}},
  "note": "pKd: −log10 of the molar value.",
  "data": [
    {"substance": "GII.4 Sydney/2012 virus-like particles (complex)", "values": [
      {"measurement": "GII.4 virus (stool isolate) replication in J2 HIEs at 24 h in the presence of anti-gal-3 antibody", "setting": "[1]", "value": 98, "unit": "% reduction"}
    ]},
    {"substance": "GII.4 capsid Shell (S) domain (domain or fragment)", "values": [
      {"measurement": "pKd", "setting": "[2]", "value": 4.67},
      {"measurement": "pKd", "setting": "[3]", "value": 5.00}
    ]}
  ]
}
